Reference: a protein production outcome set (Wang et al. 2014)

Assay: label from the status in PepcDB records
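Also: failed if final PepcDB status was selected cloned or expressed and not failed if soluble or beyond.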

Row | Sequence | protein production
1 | MKMVDELKGNLNSFLILLGIFSFLQFSFKQSFMFPSILPLNIPDSNLLLVIGNISFYFFFVFLLIVSMILSLTYKSLIPLTIILTISPFITLIPNYENSFLLYSLEIAILILGLASTIEGLIKSSLLSILLIPTLVLVNLGIYASILLNIFHNALFISYLTIYLISIAGYLAYVISWGKIKSLRNYIAISVGLLSMIPFIFFENIISHNRYLEILMNMILPSTLGITLYNPYHITLLVMALGLSTMGIVTSLIKGNVSSGVGYFLIITTVFLGIDGFSLLIYMLTPIIGFLVITSSEIESKRRLIDIISPTRNG | failed
2 | MSEPLLHLTERSLWDAARDRGTYEMATRGRTLQEEGFIHCSLRHQLPGVAALLYGSRAGSDELVVLVVDAERLAAPVRYEAVGPGGEEFPHVYGPIPVSAVVDVEVWTGGEAASALEHHHHHH | not failed
3 | MPALDLIRPSVTAMRVIASVNAEFARELKLPPHIRSLGLISADSDDVTYIAADEATKQAMVEVVYGRSLYAGAAHGPSPTAGEVLIMLGGPNPAEVRAGLDAMVANIENGAAFQWANDAENTAFLAHVVSRTGSYLSSTAGITLGDPMAYLVAPPLEATYGIDAALKSADVQLVTYVPPPSETNYSAAFLTGSQAACKAACNAFTDAVLEIARNPIQRA | not failed
4 | MPSPRLQHSKPPRRLSRAQKHSSGSSNTSTANRRAHLRLCLERLKVLIPLGPDCTRHTTLGLLNKAKAHIKKLEEAERKSQHQLENLEREQRFLKWRLEQLQGPQEMERIRMDSIGSTISSDRSDSEREEIEVDVESTEFSHGEVDNISTTSISDIDDHSSLPSIGSDEGYSSASVKLSFTS | failed
5 | MGLPSSLESYLLLILLSFLNVSTIYSSKPSKEEAVLFGGNFPAFYVIGDSLVDPGNNNHLPTMIRANYPPYGSDFEGGKATGRFSNGKTIADYIAIYYKLPLVPAYLGLSDDRKDTISTGMNYASAGCGIRRLTGKIAGKCLSLSKQVDLFEETIEKHLKTNFKTPYELREHLAHSLFMTVIGVNDYAFFYTRLTDANDFADELLHKFLKKIEKLHKLGARKFFINNIKPLGCYPNIVAKTVPRGSRRTYKPCYKHLQRKA | failed
6 | MDRIPFGIRQLDSIINGGAPAGSVVLLSGEAGAGSREFMHTSALINGLEQVDTELHDLYYGDRSPDAVAPDEVHYISFTTNESQLVSEMRLAMDDDVVDKGSRAVEFHDLSERYFHISPVPREWYASETASITDLRARHEREDLLGTLGMVLNEVAANNLVVIDSLSDLVSAMGEEIEWSDISSLVQGLQKAAHQWGCLLLLHINPETLSTVRHGQLVDASHGTMEFAWESGGSTRARTLVVQQFRGVLSQIEDEDIVQFETELGDAGFDISDVRKIRLEHHHHHH | failed
7 | MLQIIVPMAGAGSRFAVAGYTDPKPLIPVHGVPMIKVVIDNLTPDCPHRFIFICQAEQVAAYGLREKLNAWAPGCGIVELGGLTGGAACTVYAARHLINYDQQVMIANSDQYVDVDINAYLHAMNECDAAGLIMTMKASDPKWSFVGFDSQGHINRVVEKEVISDEATVGIYNFRSGGQLVSAIEAMVLKDLRVNGEFYVAPAYNELIEQGAKVIHYSIGAEGHGMYGLGIPVDLNLFLSLPLSRQAASGVGNLEHHHHHH | failed
8 | LRQSQQMLQLVMDTIPHSVFWKDRNSVFLGCNRNFAIMVGYEHPENLIGKTDYDFLPDPRNADLYRQCDARIIETNNPEYHIIEPMLAPDGQQIWLETNKVPLHDPEGNVVGVLGTFEDITERKQVQEA | failed
9 | MSEVTKNSLEKILPQLKCHFTWNLFKEDSVSRDLEDRVCNQIEFLNTEFKATMYNLLAYIKHLDGNNEAALECLRQAEELIQQEHADQAEIRSLVTWGNYAWVYYHLGRLSDAQIYVDKVKQTCKKFSNPYSIEYSELDCEEGWTQLKCGRNERAKVCFEKALEEKPNNPEFSSGLAIAMYHLDNHPEKQFSTDVLKQAIELSPDNQYVKVLLGLKLQKMNKEAEGEQFVEEALEKSPCQTDVLRSAAKFYRRKGDLDKAIELFQRVLESTPNNGYLYHQIGCCYKAKVRQMQNTGESEASGNKEMIEALKQYAMDYSNKALEKGLNPLNAYSDLAEFLETECYQTPFNKEVPDAEKQQSHQRYCNLQKYNGKSEDTAVQHGLEGLSISKKSTDKEEIKDQPQNVSENLLPQNAPNYWYLQGLIHKQNGDLLQAAKCYEKELGRLLRDAPSGIGSIFLSASELEDGSEEMGQGAVSSSPRELLSNSEQLN | failed
10 | MELSFRIWLGGLGMLISLLILYFKAVPELEEFHKNCTLKQNWEQPFKKVKNLTLILSISLLSIIGFFLMFINLVNINPI | failed
